Data as given in article PMC3918441.

Biological target: KDM5B PHD1 finger (wild type) (human)
Assay: other fluorescence titration

Kd: 1500 nM
Substance: H3K4me0 peptide (aa 1-12 of H3) (from UniProt P68431 2-13)
